Measurements: patent publication US20220001020A1

Target: CD123 (human) (UniProt P26951)
Assay: cell-based or functional assay

Chain of UniProt P26951 (P26951 19-378): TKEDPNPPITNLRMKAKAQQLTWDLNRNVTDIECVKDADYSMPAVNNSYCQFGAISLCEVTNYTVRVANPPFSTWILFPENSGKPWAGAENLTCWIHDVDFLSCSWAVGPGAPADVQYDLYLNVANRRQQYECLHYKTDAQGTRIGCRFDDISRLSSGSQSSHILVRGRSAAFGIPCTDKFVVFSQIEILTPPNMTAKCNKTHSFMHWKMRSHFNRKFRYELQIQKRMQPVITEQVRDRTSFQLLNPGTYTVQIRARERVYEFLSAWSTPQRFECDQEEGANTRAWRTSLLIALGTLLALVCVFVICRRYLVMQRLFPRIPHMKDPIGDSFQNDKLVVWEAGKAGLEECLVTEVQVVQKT

For “diphtheria toxin-human interleukin-3 conjugate (DT-IL3)”, the IC50, cell viability assay was 4.8 nM.
